Consider two substances from publication PMC12643800.

In general, stoichiometry N refers to a count of units in the complex or per binding partner.

The target of assay [1] is Escherichia coli L-asparaginase II (AsnB) expressed in and secreted from Corynebacterium glutamicum (E. coli K-12) (UniProt P00805). As to the kind of experiment: SEC; Superdex 200 Increase 10/300 GL on FPLC, 0.5 ml/min, 150 ug protein loaded; molecular mass from a calibration curve with carbonic anhydrase, ovalbumin, conalbumin and aldolase; proteins loaded individually.

For assay [2], the target named is commercially available asparaginase Ec-AsnB (MEDAC, Germany) (E. coli) (UniProt P00805). The assay is described as above.

“Escherichia coli L-asparaginase II (AsnB) expressed in and secreted from Corynebacterium glutamicum (from UniProt P00805 23-348) (enzyme)” displayed a stoichiometry N in assay [1] of 4.
The substance “commercially available asparaginase Ec-AsnB (MEDAC, Germany) (from UniProt P00805 23-348) (enzyme)” displayed a stoichiometry N in assay [2] of 4.
